Measured values reported in US20240182563A1 (GENOME, published 2024).

T1: mouse CNTN4-rabbit Fc (mouse; rabbit, UniProt Q69Z26 19-1000, limits assumed)
T1 construct: not shown: rabbit Fc
T1 sequence (looked up): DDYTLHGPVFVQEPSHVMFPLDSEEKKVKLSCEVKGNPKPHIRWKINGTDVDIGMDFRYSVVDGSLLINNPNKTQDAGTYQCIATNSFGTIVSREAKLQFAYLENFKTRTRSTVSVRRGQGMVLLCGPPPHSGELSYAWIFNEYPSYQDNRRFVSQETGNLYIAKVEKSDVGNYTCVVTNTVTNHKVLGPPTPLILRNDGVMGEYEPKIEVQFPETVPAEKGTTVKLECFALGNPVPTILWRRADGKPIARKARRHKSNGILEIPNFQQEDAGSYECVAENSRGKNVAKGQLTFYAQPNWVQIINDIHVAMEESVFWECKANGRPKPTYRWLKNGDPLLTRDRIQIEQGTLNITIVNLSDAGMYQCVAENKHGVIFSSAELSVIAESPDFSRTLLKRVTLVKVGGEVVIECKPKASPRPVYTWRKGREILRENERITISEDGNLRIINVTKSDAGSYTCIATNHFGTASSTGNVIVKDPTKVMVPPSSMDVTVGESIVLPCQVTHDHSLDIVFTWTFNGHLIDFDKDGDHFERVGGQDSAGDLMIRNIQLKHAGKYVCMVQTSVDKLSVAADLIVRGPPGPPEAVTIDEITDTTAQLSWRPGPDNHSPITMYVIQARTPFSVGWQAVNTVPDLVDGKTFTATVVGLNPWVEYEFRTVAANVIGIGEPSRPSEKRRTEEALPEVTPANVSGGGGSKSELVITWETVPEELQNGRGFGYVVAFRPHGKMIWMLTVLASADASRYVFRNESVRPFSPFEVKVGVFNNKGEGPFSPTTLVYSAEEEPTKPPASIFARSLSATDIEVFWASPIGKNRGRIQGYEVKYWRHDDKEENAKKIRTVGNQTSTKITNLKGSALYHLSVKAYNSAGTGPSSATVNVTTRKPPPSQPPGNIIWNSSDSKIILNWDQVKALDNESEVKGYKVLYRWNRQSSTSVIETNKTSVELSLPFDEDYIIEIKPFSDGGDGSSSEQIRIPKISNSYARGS

T2: human CNTN4-rabbit Fc (human; rabbit, UniProt Q8IWV2 19-1000, limits assumed)
T2 construct: not shown: rabbit Fc
T2 sequence (looked up): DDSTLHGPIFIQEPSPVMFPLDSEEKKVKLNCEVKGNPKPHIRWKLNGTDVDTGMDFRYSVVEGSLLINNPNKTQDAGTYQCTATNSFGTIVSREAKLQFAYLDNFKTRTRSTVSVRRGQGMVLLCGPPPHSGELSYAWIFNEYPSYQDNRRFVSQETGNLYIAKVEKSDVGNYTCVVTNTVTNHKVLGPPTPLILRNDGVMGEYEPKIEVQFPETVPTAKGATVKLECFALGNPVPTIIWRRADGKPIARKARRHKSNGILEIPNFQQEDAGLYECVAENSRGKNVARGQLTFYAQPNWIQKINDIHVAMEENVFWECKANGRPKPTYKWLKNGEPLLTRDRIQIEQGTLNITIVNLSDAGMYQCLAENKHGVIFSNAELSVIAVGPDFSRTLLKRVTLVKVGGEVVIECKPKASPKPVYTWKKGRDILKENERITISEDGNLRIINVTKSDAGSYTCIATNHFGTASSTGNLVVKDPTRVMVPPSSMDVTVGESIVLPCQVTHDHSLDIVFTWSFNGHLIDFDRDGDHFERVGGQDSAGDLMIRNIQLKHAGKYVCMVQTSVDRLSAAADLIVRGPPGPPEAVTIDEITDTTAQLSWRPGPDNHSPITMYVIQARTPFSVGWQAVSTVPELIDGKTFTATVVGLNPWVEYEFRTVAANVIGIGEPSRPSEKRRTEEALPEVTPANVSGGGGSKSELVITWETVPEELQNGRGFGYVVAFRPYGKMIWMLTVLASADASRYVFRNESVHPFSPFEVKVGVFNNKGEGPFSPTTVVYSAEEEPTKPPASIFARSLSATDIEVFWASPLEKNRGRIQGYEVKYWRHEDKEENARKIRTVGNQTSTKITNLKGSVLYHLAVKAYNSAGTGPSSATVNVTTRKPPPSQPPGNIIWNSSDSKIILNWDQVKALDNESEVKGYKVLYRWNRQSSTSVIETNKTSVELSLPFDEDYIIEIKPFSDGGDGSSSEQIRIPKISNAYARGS

T3: human CNTN4 antigen expressed on the cell membrane of 293FT cells (human, UniProt Q8IWV2 19-1000)
T3 construct: whole, on cells; also called Human CNTN4 transfected cell
T3 sequence (looked up): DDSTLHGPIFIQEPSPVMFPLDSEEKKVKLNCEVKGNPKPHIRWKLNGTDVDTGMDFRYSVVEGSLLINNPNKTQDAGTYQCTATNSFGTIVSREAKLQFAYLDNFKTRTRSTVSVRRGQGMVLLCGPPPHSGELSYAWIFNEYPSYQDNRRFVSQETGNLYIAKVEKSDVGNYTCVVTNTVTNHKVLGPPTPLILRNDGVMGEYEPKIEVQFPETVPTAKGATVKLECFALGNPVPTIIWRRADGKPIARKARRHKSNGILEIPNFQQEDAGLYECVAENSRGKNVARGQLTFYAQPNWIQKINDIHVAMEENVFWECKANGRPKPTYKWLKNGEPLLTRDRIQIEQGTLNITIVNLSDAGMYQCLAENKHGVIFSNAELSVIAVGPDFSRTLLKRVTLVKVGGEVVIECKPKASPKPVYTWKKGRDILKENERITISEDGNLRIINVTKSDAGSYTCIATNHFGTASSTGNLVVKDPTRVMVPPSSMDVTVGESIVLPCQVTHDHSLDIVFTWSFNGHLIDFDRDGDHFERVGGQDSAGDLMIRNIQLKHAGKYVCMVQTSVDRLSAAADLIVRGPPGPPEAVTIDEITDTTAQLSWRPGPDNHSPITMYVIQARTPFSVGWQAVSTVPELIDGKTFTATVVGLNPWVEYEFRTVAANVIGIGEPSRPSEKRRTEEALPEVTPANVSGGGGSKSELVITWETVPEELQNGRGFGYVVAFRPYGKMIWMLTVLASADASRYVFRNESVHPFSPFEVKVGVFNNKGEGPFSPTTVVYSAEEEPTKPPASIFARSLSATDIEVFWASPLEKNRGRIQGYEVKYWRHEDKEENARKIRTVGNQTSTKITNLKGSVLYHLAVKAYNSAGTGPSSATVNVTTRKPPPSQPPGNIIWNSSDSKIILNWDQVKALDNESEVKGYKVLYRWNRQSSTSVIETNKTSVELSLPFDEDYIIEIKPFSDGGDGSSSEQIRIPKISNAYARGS


Experiments:
mouse CNTN4-rabbit Fc = target: T1, mouse CNTN4-rabbit Fc; test: ELISA, plate coated with antigen-rabbit Fc, anti-human IgG Fc-HRP
Procedure: (§1) An ELISA tests were performed on a total of 25 scFv-hCks and a total of 27 IgGs for which the expression was confirmed in Example 1.2. An ELISA plate was coated with 200 ng of antigens (human CNTN4-rabbit Fc or mouse CNTN4-rabbit Fc). 200 ng of a negative control (human antigen-rabbit Fc) for a tagging protein was used. For antibody binding, anti-CNTN4 scFv-hCk was serially diluted from a maximum of 1 μM to 0.001 nM by 1/10×each, and anti-CNTN4 IgG was serially diluted from a maximum of 10 nM to 0.00001 nM by 1/10×each, thereby binding to the antigen. Anti-human kappa-HRP or anti-human IgG Fc-HRP was used as the secondary antibody for antibody detection. Color was developed using ABTS, which is a color developing reagent, and the absorbance at 405 nm was measured.

human CNTN4-rabbit Fc = target: T2, human CNTN4-rabbit Fc; test: as above
Procedure: as §1

[1] = target: T3, human CNTN4 antigen expressed on the …; test: FACS, 293FT cells transfected with human CNTN4, 40 ug/mL, anti-hFc-PE

Row | EC50 (mouse CNTN4-rabbit Fc) | EC50 (human CNTN4-rabbit Fc) | Shift % [1] | Binder
1 | 0.01 nM | 0.01 nM | 86.6% | anti-CNTN4 IgG A13WB2 (antibody, V domains shown, human IgG4 (S228P)) VH: AVTLDESGGGLHTPGGALSLVCKASGFTFSSYGMAWVRQAPGKGLEWVAGITSSGSSAGYGPAVKGRATISRDNGQSTVRLQLNNLRAEDTATYYCAKDGYIYSGADSDSIDAWGHGTEVIVSS VL: ALTQPSSVSANLGGTVEITCSGGYSGYGWYQQKSPGSAPVTLIYYNDKRPSDIPSRFSGSKSGSTGTLTITGVQAEDEAVYFCGSRDSSTYVDIFGAGTTLTVL
2 | 0.01 nM | 0.01 nM | 86.4% | anti-CNTN4 IgG A13WB7 (antibody, V domains shown, human IgG4 (S228P)) VH: AVTLDESGGGLHTPGGALSLVCKASGFTFSSYGMAWVRQAPGKGLEWVAGITSSGSSAGYGPAVKGRATISRDNGQSTVRLQLNNLRAEDTATYYCAKDGYIYSGADSDSIDAWGHGTEVIVSS VL: ALTQPSSVSANPGETVKITCSGGGSSSYYNYGWYQQKSPGSAPVTVIYYNDKRPSDIPSRFSGSKSGSTGTLTITGVQAEDEAVYYCGSWDSSTYSDIFGAGTTLTVL
3 | 0.01 nM | 0.01 nM | 85.1% | anti-CNTN4 IgG A13WB24 (antibody, V domains shown, human IgG4 (S228P)) VH: AVTLDESGGGLHTPGGALSLVCKASGFTFSSYGMAWVRQAPGKGLEWVAGITSSGSSAGYGPAVKGRATISRDNGQSTVRLQLNNLRAEDTATYYCAKDGYIYSGADSDSIDAWGHGTEVIVSS VL: ALTQPSSVSANPGGTVEITCSGGGNNNYGWYQQKSPGSAPVTLIYYNDNRPSDIPSRFSGSKSGSTATLTITGVQAEDEAVYYCGGYDISYVDIFGAGTTLTVL
4 | 0.01 nM | 0.01 nM | 84.7% | anti-CNTN4 IgG A13WB4 (antibody, V domains shown, human IgG4 (S228P)) VH: AVTLDESGGGLHTPGGALSLVCKASGFTFSSYGMAWVRQAPGKGLEWVAGITSSGSSAGYGPAVKGRATISRDNGQSTVRLQLNNLRAEDTATYYCAKDGYIYSGADSDSIDAWGHGTEVIVSS VL: ALTQPSSVSANPGETVEITCSGGSSDYGYGWYQQKSPGSAPVTVIYYNNNRPSDIPSRFSGSLSGSTNTLTITGVQADDEAVYFCGSRDSSSGYVDIFGAGTTLTVL

Second part, the binder before the results:

Row | Binder | EC50 (mouse CNTN4-rabbit Fc) | EC50 (human CNTN4-rabbit Fc) | Shift % [1]
5 | anti-CNTN4 IgG A35SF8 (antibody, V domains shown, human IgG4 (S228P)) VH: AVTLDESGGGLHTPGGALSLVCKASGFTFSSYGMAWVRQAPGKGLEWVAGITSSGSSAGYGPAVKGRATISRDNGQSTVRLQLNNLRAEDTATYYCAKDGYIYSGADSDSIDAWGHGTEVIVSS VL: ALTQPSSVSANLGGTVKITCSGGGGSYGWFQQKSPGSAPVTLIYNNNNRPSDIPSRFSGSKSGSTATLTITGVQAEDEAVYFCGGYDDSTYVGMFGAGTTLTVL | 0.02 nM | 0.01 nM | 80.4%
6 | anti-CNTN4 IgG A13SF16 (antibody, V domains shown, human IgG4 (S228P)) VH: AVTLDESGGGLQTPGGGLSLVCKASGFTFSSYGMAWVRQAPGKGLEWVAGITSSGSSAGYGPAVKGRATISRDNGQSTVRLQLNNLRAEDTATYYCAKDGYIYSGADSDSIDAWGHGTEVIVSS VL: ALTQPSSVSANLGGTVKITCSGSGGSYGWFQQKSPGSAPVTLIYNNDNRPSDIPSRFSGSKSGSTATLTITGVQAEDEAVYFCGGYDSSTYVDTFGAGTTLTVL | 0.01 nM | 0.01 nM | 84.8%
7 | anti-CNTN4 IgG A13SF21 (antibody, V domains shown, human IgG4 (S228P)) VH: AVTLDESGGGLHTPGGALSLVCKASGFTFSSYGMAWVRQAPGKGLEWVAGITSSGSSAGYGPAVKGRATISRDNGQSTVRLQLNNLRAEDTATYYCAKDGYIYSGADSDSIDAWGHGTEVIVSS VL: ALTQPSSVSANLGGTVEITCSGSSGSYGWYQQKAPGSAPVTVIYNNNNRPSGIPSRFSGALSGSTATLTITGVQAEDEAVYFCGGYDSSTYVGIFGAGTTLTVL | 0.01 nM | 0.01 nM | 80.4%
8 | anti-CNTN4 IgG A13SF1 (antibody, V domains shown, human IgG4 (S228P)) VH: AVTLDESGGGLQTPGGGLSLVCKASGFTFSSYGMAWVRQAPGKGLEWVAGITSSGSSAGYGPAVKGRATISRDNGQSTVRLQLNNLRAEDTATYYCAKDGYIYSGADSDSIDAWGHGTEVIVSS VL: ALTQPSSVSANLGGTVKITCSGGGGSYGWFQQKSPGSAPVTLIYNNNNRPSDIPSRFSGSKSGSTATLTITGVQAEDEAVYFCGGYDSSTYVGTFGAGTTLTVL | 0.02 nM | 0.01 nM | 83.8%
